Laboratory results reported in patent publication US20250215098A1 (QYUNS THERAPEUTICS, published 2025).

Target: T1, human IL-36R on HT29 cells, HT29 reporter gene cells, A431 cells and human PBMC (human, UniProt Q9HB29 20-575)
T1 sequence (looked up): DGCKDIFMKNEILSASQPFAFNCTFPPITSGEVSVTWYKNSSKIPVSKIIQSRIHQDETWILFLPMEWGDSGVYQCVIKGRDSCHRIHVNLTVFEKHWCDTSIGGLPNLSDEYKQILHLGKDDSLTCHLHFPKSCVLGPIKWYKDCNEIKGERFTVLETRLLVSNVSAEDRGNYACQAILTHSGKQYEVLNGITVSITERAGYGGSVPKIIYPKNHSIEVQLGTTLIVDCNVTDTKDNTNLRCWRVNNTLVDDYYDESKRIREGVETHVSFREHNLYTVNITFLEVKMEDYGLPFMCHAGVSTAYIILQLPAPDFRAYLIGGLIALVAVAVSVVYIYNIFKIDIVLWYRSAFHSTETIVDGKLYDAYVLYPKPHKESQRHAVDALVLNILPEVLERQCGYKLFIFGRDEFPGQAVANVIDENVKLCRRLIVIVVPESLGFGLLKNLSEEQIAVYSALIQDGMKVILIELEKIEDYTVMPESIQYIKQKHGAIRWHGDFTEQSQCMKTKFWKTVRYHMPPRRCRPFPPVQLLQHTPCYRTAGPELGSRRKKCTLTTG
Assay: cell-based or functional assay

B1: QX009N (HZD25-54) (antibody, human IgG1, kappa, L234A L235A, V domains shown)
VH: EVQLVESGGGLVQPGGSLRLSCAASGIDLSNYAMGWVRQAPGKGLEWVGYISGGGSAYYASWAKGRFTISRDNSKNTLYLQMNSLRAEDTAVYYCARWAIKSYFFGMDLWGQGTLVTVSS
VL: DIQMTQSPSSVSASVGDRVTITCQASEYISSYLAWYQQKPGKAPKLLIYQASTLASGVPSRFSGSGSGTDFTLTISSLQPEDFATYYCQTNNAIHTYGGAFGGGTKVEIKR
  IC50 in inhibiting CXCL-1 release from A431 cells induced by the human IL-36 (α, β, γ): 4.12 ng/mL
  IC50 in inhibiting CXCL-1 release from HT29 cells induced by the human IL-36 (α, β, γ): 2.21 ng/mL
  IC50 in inhibiting IL-8 release from A431 cells induced by the human IL-36 (α, β, γ): 2.89 ng/mL
  IC50 in inhibiting IL-8 release from HT29 cells induced by the human IL-36 (α, β, γ): 1.53 ng/mL
  IC50 in inhibiting IL-8 release from human PBMC cells induced by the human IL-36β: 4.69 ng/mL
  IC50 in inhibiting STAT3 phosphorylation in HT29 reporter cells induced by human IL-36 (α, β, γ): 2.16 ng/mL

B2: Spesolimab (expressed from the B6 sequence of patent US9023995B2) (antibody, V domains shown)
VH: QVQLVQSGAEVKKPGASVKVSCKASGYSFTSSWIHWVKQAPGQGLEWMGEINPGNVRTNYNENFRNKVTMTVDTSISTAYMELSRLRSDDTAVYYCTVVFYGEPYFPYWGQGTLVTVSS
VL: QIVLTQSPGTLSLSPGERATMTCTASSSVSSSYFHWYQQKPGQAPRLWIYRTSRLASGVPDRFSGSGSGTDFTLTISRLEPEDAATYYCHQFHRSPLTFGAGTKLEIK
  IC50 in inhibiting CXCL-1 release from A431 cells induced by the human IL-36 (α, β, γ): 12.3 ng/mL
  IC50 in inhibiting CXCL-1 release from HT29 cells induced by the human IL-36 (α, β, γ): 12.3 ng/mL
  IC50 in inhibiting IL-8 release from A431 cells induced by the human IL-36 (α, β, γ): 11.5 ng/mL
  IC50 in inhibiting IL-8 release from HT29 cells induced by the human IL-36 (α, β, γ): 11.5 ng/mL
  IC50 in inhibiting IL-8 release from human PBMC cells induced by the human IL-36β: 26.6 ng/mL
  IC50 in inhibiting STAT3 phosphorylation in HT29 reporter cells induced by human IL-36 (α, β, γ): 15.7 ng/mL
